# ± gives the standard error. For some of these results: Variants at the floor of the assay were thinned out.
# B1: glmS ribozyme (parent)
# chain: AUAAAAGCGCCAGAACUACAGAAAUGUAGUUGACGAGGAGGAGGUUUAUCGAAUUUUCGGCGGAUGCCUCCAAA
# Tests used:
# Settings in all cases: with glucosamine-6-phosphate
# glucosamine-6-phosphate [1] = variants of: B1; experiment: kcat; higher = faster cleavage; RNA array
# How it was run: (§1)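 The measurements used barcoded ribozyme variants on sequenced MiSeq chips, transcribed in situ by E. coli RNA polymerase and tracked at 37 °C with a hybridised Cy3 probe. Glucosamine-6-phosphate, 40 μM to 10 mM in HEPES/KCl/Mg(OAc)2 buffer, was flowed in while tiles were imaged over ~14 h. Baseline-normalised signals, also normalised to non-cleaving reference variants, gave per-tile medians that were fit to one- or two-exponential decays for kobs. kcat and KM resulted from weighted Michaelis–Menten fits across concentrations.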
# glucosamine-6-phosphate [2] = variants of: B1; experiment: KM; higher = weaker cofactor use; RNA array
# How it was run: as §1
# glucosamine-6-phosphate [3] = variants of: B1; experiment: self-cleavage kobs at 160 uM GlcN6P; higher = faster cleavage; RNA array
# How it was run: as §1
# glucosamine-6-phosphate [4] = variants of: B1; experiment: self-cleavage kobs at 640 uM GlcN6P; higher = faster cleavage; RNA array
# How it was run: as §1
# glucosamine-6-phosphate [5] = variants of: B1; experiment: self-cleavage kobs at 2500 uM GlcN6P; higher = faster cleavage; RNA array
# How it was run: as §1
# glucosamine-6-phosphate [6] = variants of: B1; experiment: self-cleavage kobs at 10000 uM GlcN6P; higher = faster cleavage; RNA array
# How it was run: as §1
# glucosamine-6-phosphate [7] = variants of: B1; experiment: self-cleavage kobs at 40 uM GlcN6P; higher = faster cleavage; RNA array
# How it was run: as §1
Variant,kcat (glucosamine-6-phosphate [1]) [s⁻¹],KM (glucosamine-6-phosphate [2]) [µM],self-cleavage kobs at 160 uM GlcN6P (glucosamine-6-phosphate [3]) [s⁻¹],self-cleavage kobs at 640 uM GlcN6P (glucosamine-6-phosphate [4]) [s⁻¹],self-cleavage kobs at 2500 uM GlcN6P (glucosamine-6-phosphate [5]) [s⁻¹],self-cleavage kobs at 10000 uM GlcN6P (glucosamine-6-phosphate [6]) [s⁻¹],self-cleavage kobs at 40 uM GlcN6P (glucosamine-6-phosphate [7]) [s⁻¹]
U30C U45A,0.000449 ± 4.9e-05,1150 ± 280,5.04e-05 ± 1.7e-05,0.000176 ± 3.8e-05,0.000235 ± 8.7e-05,0.000418 ± 6e-05,–
G41U A53U,0.00104 ± 0.00026,889 ± 390,0.000145 ± 2.2e-05,0.000413 ± 8.1e-05,0.000697 ± 0.0001,0.00119 ± 0.00021,9.28e-05 ± 2e-05
G35U G43U,< 1e-05,–,–,< 1e-05,< 1e-05,–,–
A14G,0.0996 ± 0.0091,1720 ± 180,0.00764 ± 0.00054,0.0249 ± 0.0012,0.0558 ± 0.0042,0.0902 ± 0.0048,0.00231 ± 4.7e-05
A53U A64U,6.7e-05 ± 2e-06,1330 ± 190,–,–,4.18e-05 ± 1.2e-05,5.95e-05 ± 7.3e-06,< 1e-05
G13U U31C,0.000427 ± 1.8e-05,1040 ± 110,4.8e-05 ± 2.1e-05,0.00017 ± 2.8e-05,0.000297 ± 3.8e-05,0.000387 ± 5.1e-05,–
U47G C58A,0.000264 ± 4e-05,2260 ± 690,–,5.5e-05 ± 1.2e-05,0.000177 ± 4.2e-05,0.000208 ± 3.2e-05,–
G44C C68U,8.31e-05 ± 1.5e-05,5560 ± 1800,< 1e-05,–,2.65e-05 ± 1.2e-05,–,< 1e-05
A15U G32U C67U,0.000433 ± 0.00015,–,–,3.29e-05 ± 1.4e-05,6.84e-05 ± 1.9e-05,0.000204 ± 3.8e-05,–
A39U G44U,0.00106 ± 0.00049,–,0.000143 ± 1.3e-05,0.000437 ± 3e-05,0.000955 ± 9.3e-05,–,8.33e-05 ± 6.8e-06
G40A,0.0122 ± 0.00085,1310 ± 110,0.0012 ± 0.00012,0.00372 ± 0.0003,0.00876 ± 0.0005,0.0103 ± 0.00063,0.000363 ± 7.8e-06
G37A U55C,0.000802 ± 5.9e-05,2180 ± 260,5.1e-05 ± 1.1e-05,0.000189 ± 2e-05,0.000404 ± 5.6e-05,0.000676 ± 8.7e-05,–
U47A G59U,5.89e-05 ± 1.5e-06,–,–,–,–,–,–
G7C A36G G37U A52U U57C G63U,< 1e-05,–,–,–,< 1e-05,–,–
A12G G41A,0.00048 ± 0.00011,9920 ± 3500,–,3.72e-05 ± 1.2e-05,8.85e-05 ± 1.7e-05,0.000246 ± 3.7e-05,–
A14U U45G,0.00111 ± 0.00014,1850 ± 400,8.17e-05 ± 2.1e-05,0.00033 ± 5.4e-05,0.000633 ± 0.00013,0.000917 ± 0.00013,–

Variant,kcat (glucosamine-6-phosphate [1]) [s⁻¹],KM (glucosamine-6-phosphate [2]) [µM],self-cleavage kobs at 160 uM GlcN6P (glucosamine-6-phosphate [3]) [s⁻¹],self-cleavage kobs at 640 uM GlcN6P (glucosamine-6-phosphate [4]) [s⁻¹],self-cleavage kobs at 2500 uM GlcN6P (glucosamine-6-phosphate [5]) [s⁻¹],self-cleavage kobs at 10000 uM GlcN6P (glucosamine-6-phosphate [6]) [s⁻¹],self-cleavage kobs at 40 uM GlcN6P (glucosamine-6-phosphate [7]) [s⁻¹]
G41A U65A,0.000213 ± 2.1e-05,1040 ± 220,–,7.98e-05 ± 1.2e-05,0.000171 ± 3e-05,0.000182 ± 3e-05,–
A53G U65A,0.00318 ± 0.00053,1530 ± 350,0.000257 ± 5e-05,0.00114 ± 0.00019,0.00184 ± 0.00046,0.00272 ± 0.00056,8.56e-05 ± 1.5e-05
U55C C67A,0.000193 ± 6.1e-05,–,–,0.000133 ± 2.3e-05,0.000137 ± 2.4e-05,0.00029 ± 5.7e-05,–
G38A U47G C71G,1.15e-05 ± 1.8e-06,–,–,–,–,–,–
A39G A42C,3.82e-05 ± 3.7e-06,–,–,–,3e-05 ± 1.4e-05,3.4e-05 ± 8e-06,–
G7U A14U G29A G37U C61G U69C,0.000491 ± 3.7e-05,143 ± 19,0.000282 ± 7.4e-05,0.000389 ± 0.00014,0.000446 ± 0.00019,–,0.000105 ± 2.3e-05
A15G U31G,0.00736 ± 0.0015,4370 ± 1200,0.000202 ± 3.2e-05,0.0011 ± 0.00015,0.00262 ± 0.00033,0.00513 ± 0.00051,7.87e-05 ± 9.4e-06
U46G U56C,0.00203 ± 0.0005,4990 ± 2300,4.23e-05 ± 2.1e-05,–,0.000799 ± 0.00013,0.00131 ± 0.00016,–
G32C G37A U55A C67A C68A,4.68e-05 ± 2.3e-05,–,–,7.47e-05 ± 3.5e-05,–,–,–
G32A A42G,0.00505 ± 0.0014,3140 ± 1200,0.000193 ± 3.2e-05,0.00133 ± 0.00025,0.00281 ± 0.00043,0.00357 ± 0.00047,7.49e-05 ± 1.3e-05
A64C C68U,< 1e-05,–,< 1e-05,–,–,< 1e-05,< 1e-05
A15G U57C C58A,3.45e-05 ± 4.1e-06,–,–,–,–,3.05e-05 ± 1.1e-05,–
U30G C67G,0.000155 ± 9.6e-06,2050 ± 310,–,3.99e-05 ± 9.3e-06,8.11e-05 ± 1e-05,0.000132 ± 1.6e-05,–
G29A C58A,0.000173 ± 2.2e-06,875 ± 32,–,7.35e-05 ± 1.6e-05,0.000126 ± 2.9e-05,0.00016 ± 3e-05,–
A15G A52U,0.000384 ± 8.3e-05,5400 ± 2000,–,3.21e-05 ± 7.2e-06,0.000147 ± 1.6e-05,0.00024 ± 2.3e-05,–
